From the supplement of paper PMC9170038

Legend:
[1] = system: K4 kissing-loop RNA reporter; test: apparent KD of K4 kissing-loop reporter; higher = weaker reporter binding; settings: Eterna round: R107;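 note: bound reporter read as fluorescence of individual clusters on recovered sequencing chips by microscopy, with normalized cluster intensities fitted with a binding model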
Protocol: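 RNA-MaP round R107: designed RNA switches with theophylline, tryptophan, arginine or FMN aptamers are transcribed on-chip within common flanks. They are titrated with a labelled K4 kissing-loop RNA reporter in RNA-MaP buffer (100 mM Tris pH 7.5, 80 mM KCl, 4 mM MgCl2), without ligand or with the indicated ligand. Median apparent KD per design.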

MS2 coat protein = test: apparent KD of MS2 coat protein; designed switch direction (-1 OFF switch, 1 ON switch): -1; higher = weaker reporter binding
Method in brief: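 Designed RNA switches with common flanks were made on Illumina chips by stalled E. coli RNA polymerase. Titration with SNAP-549-labelled MS2 coat protein doubled from 0.7 or 1.5 nM up to 3 µM. Apparent KD is each design's median over clusters after curve-fitting normalised fluorescence.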

[2] = input ligand: theophylline 20 uM
[3] = input ligand: tryptophan 2.4 mM

Sequence | apparent KD of K4 kissing-loop reporter ([1]; input ligand: FMN 200 uM) | apparent KD of K4 kissing-loop reporter ([1]; input ligand: arginine 13.2 mM) | apparent KD of K4 kissing-loop reporter ([1]; input ligand: none) | apparent KD of K4 kissing-loop reporter [1, 2] | apparent KD of K4 kissing-loop reporter [1, 3] | apparent KD of MS2 coat protein (MS2 coat protein; input ligand: FMN 200 uM) | apparent KD of MS2 coat protein (MS2 coat protein; input ligand: none) | apparent KD of MS2 coat protein (MS2 coat protein; Eterna round: R95, input ligand: microRNA oligo, concentration not stated)
AAACAACGUGACGAUACCAGCUUACUCGGCAAGCCAGUGAUGUUGGUGAAAAGGAGUCAAAGCCCUUGGCAGCGUCGAAGGUCUG [Georbeer] | 332 nM | 326 nM | 427 nM | 150 nM | 325 nM | – | – | –
CCGACUGCAGGAAGGAGCGGCGGUUGGAGUGAUGUUCCGGGUAGUGAUGUUACCAAACUCCGCCAGGUAGGUCGCCUGUUGCUCG [Same State Arginine B GF10] | 151 nM | 112 nM | 165 nM | 179 nM | 144 nM | – | – | –
UUUCAAAUUUAAGGAUAUUAGAUACCAGGAAAGGAGUGAUGUUCCGUGCUACGAUAGUGCUAGGGCUAAGAAGGUAAGUCUCGAG [theeternabot_sameState_KL_FMN_B_37] | 79.1 nM | 87.2 nM | 85.6 nM | 89.6 nM | 59.1 nM | – | – | –
GCUACUGCCUUAGGAUAUAGUUGAGUGAUGUUCAAGCAUAUGCAUGGGAAAACCAUGCAUAUGUCCCUAGAAGGGAGGCAGUAGC | 800 nM | 627 nM | 859 nM | 630 nM | 740 nM | – | – | –
UCGAUGGCCAGCGAUACCAGCCCAGUGAUGUUGGGCACAUGGUUGCGGGAAAUCCCAUUGGGCCCUUGGCAGCGCUUGCAUGGGU [Dizaisa] | 148 nM | 121 nM | 140 nM | 120 nM | 125 nM | – | – | –
GUGCAGUGAUGUUGCACGAGGAAAGACGAUACCAGCCGUAAAUAAGGCCCUUGGCAGCGUAGGCUAGCAUAAAGUAUGCCAGUCU [Geleerra] | 117 nM | 112 nM | 121 nM | 113 nM | 96.5 nM | – | – | –
AAAAUAAGCCAGUGAUGUUGGUAGCCAGAUACCAGCGACGAAAGUCGCCCUUGGCAGCUGUGGACGUACAAAAUAAGUACGUCCU | 1010 nM | 751 nM | 928 nM | 711 nM | 723 nM | – | – | –
UCGGGCGGCUGAAGGAGCGGGCGGGCCCGAGUGAUGUUCGGGUGGGCCGUGAGGCCCGGAGCCCAGGUAGGUCGCGGUUCCGCCC [#2 Same State - Arginine B Attempt #23 (HarryS)] | 200 nM | 153 nM | 188 nM | 168 nM | 175 nM | – | – | –
GUAUCGCUAGGAGGAUAUUUCAAUCCGCCUAUAAUAGGUGGUACGGAGUGAUGUUCCGAUUUACGGAAAGAAGGCCUAGUGAUAC [FMN B 16] | 142 nM | 265 nM | 297 nM | 283 nM | 278 nM | – | – | –
UAAUAAUAAUGAUAAUAAUAAAGUGGUGGACGAGGACCGGUACGGCCGCCACUCGAAAAUGCAGUGAUGUUGUAAUACAAAUAAU [Exclusion - Tryptophan A (Freestyle 1)] | 110 nM | 203 nM | 137 nM | 200 nM | 86.6 nM | – | – | –
AGUGUUAGGUUAGAUACCAGCCGUCUGUGGAUAAUCCUCAGACCGCCAGUGAUGUUGGCAGGCCCUUGGCAGCUAACAGGACAGA [Mavebius] | 275 nM | 268 nM | 272 nM | 155 nM | 237 nM | – | – | –
UUCUUGAUGGAAACAUCGAGUAUUACUGAUACCAGUAUCGAUAGAUACCCUUGGCAGCAGAAUCAGUAAUAACGAGUGAUGUUCG [Ex Theophylline A K4 5] | 509 nM | 494 nM | 505 nM | 567 nM | 480 nM | – | – | –
GGAGUGAUGUUCCAUUUUUAAAUCUCCGAUACCAGUAUGGAAACAUACCCUUGGCAGCGGUAAACCGCAGAUUAGGAAACUAGUC [Theophylline A K4 1] | 496 nM | 682 nM | 615 nM | 501 nM | 561 nM | – | – | –
GGAACGUUGCGGACUAUCGCAUAAAGUCACCGAGGACCGGUACGGCCGCCACUCGCCAGUGAUGUUGGCGUGUUUGCGCGCUGUA [Isteri] | 99.6 nM | 91.1 nM | 101 nM | 83.6 nM | 117 nM | – | – | –
CAGUACUGAGGAUAUACAUGAGGAUCACCCAUGUGUGUGAGUUUUGGAUGAAUGUUAUGUAGAAGGCGGUGCUG [JR_Ex3_Sub036] (Eterna round: R97, puzzle: Exclusion 3) | – | – | – | – | – | 179 nM | 466 nM | –
GAUCCACAUGAGGAUCACCCAUGUGAGGAUAUGAUACUAUGUACUUCGGUACAUAGUAUCAGAAGGCAUAUUGA [Ex1-3: 46] (puzzle: Exclusion 1) | – | – | – | – | – | – | – | 36.3 nM
GGAAGGAGUGUAAGGAUAUCCUCCUCGAAAGAGGAGGAGAAGGUACAUGAGGAUCACCCAUGUAGAGGAGGAGG [AK-MS2ROC-r4-Bmoexclusion4-10.1] (Eterna round: R97, puzzle: Brourd's mod of Exclusion 4) | – | – | – | – | – | 73.6 nM | 35.7 nM | –
